Source: patent publication US20230094867A1 (Janssen / Centocor, published 2023)
“And” between values parts separate entries of the source, which are not always exact repeats. Equal values may be shown once.

Key:
[1] = biological target: T1, CD79b CAR (CD9B441-HL) expressed on SupT1 cells; assay: flow cytometry on live CD9B441-HL SupT1 cells with directly rPE-conjugated antibody; PE median fluorescence intensity
T1 construct: Chimeric antigen receptor with the CD9B441 scFv in VH-VL order; also called SupT1-CD9B441-HL; CD9B441-HL SupT1 cells
T1 sequence (chain, as listed by the source limits assumed): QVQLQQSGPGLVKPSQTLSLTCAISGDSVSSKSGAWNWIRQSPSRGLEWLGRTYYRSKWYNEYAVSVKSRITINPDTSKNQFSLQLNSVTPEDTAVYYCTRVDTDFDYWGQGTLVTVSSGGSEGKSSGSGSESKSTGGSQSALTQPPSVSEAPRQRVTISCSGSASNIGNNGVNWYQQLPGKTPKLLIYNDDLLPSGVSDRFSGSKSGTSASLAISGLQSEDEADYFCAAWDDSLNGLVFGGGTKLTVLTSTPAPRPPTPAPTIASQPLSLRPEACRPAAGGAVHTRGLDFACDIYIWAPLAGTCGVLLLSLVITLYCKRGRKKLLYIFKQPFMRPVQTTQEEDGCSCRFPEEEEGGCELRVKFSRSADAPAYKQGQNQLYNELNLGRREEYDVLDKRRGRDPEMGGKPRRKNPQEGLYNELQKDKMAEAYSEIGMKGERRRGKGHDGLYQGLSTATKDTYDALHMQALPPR

[2] = biological target: T1, CD79b CAR (CD9B441-HL) expressed on …; assay: flow cytometry on live CD9B441-HL SupT1 cells, detected with PE goat anti-mouse IgG; PE median fluorescence intensity
Experimental: SupT1 cells expressing CD9B441-HL were compared to parental CAR-SupT1 cells. Cells (200,000 cells/well) were stained with LIVE/DEAD Fixable Near-IR viability dye (Life Technologies cat #L10119) and then incubated with increasing concentrations of A003B192 and A003B274 for 45 minutes on ice. In addition, both anti-idiotypic antibodies were tested in the presence of Fc-CD9B441-HL fusion protein to assess the specificity of A003B192 and A003B274 binding to CD9B441-HL CAR. Following incubation, the samples were washed with BSA stain buffer (BD Biosciences cat #554657) and stained with PE-goat anti-mouse IgG polyclonal antibody (Biolegend cat #405307) to detect bound antibody on live CAR+SupT1 cells. After incubation, washing, and fixation (Cytofix, BD Biosciences cat #554655), the samples were acquired on a 10 color FACSCanto II (BD Biosciences) flow cytometer. Analysis was done using FlowJo (TreeStar) and the PE median fluorescent intensity of live CAR+SupT1 cells plotted in FIG. 3A. No binding was detected on CAR-SupT1 parental cells (data not shown) or in the presence of excess Fc-CD9B441-HL CAR fusion protein.

[3] = biological target: T2, CD9B574 (CD9B441-LH-scFv-Fc monovalent fusion protein); assay: SPR (Biacore), mAb captured on anti-mouse Fc chip, scFv-Fc antigen 100 nM to 0.16 nM in solution
T2 construct: Described only as CD9B441-LH-scFv-Fc monovalent fusion protein
T2 sequence (scFv, as listed by the source limits assumed): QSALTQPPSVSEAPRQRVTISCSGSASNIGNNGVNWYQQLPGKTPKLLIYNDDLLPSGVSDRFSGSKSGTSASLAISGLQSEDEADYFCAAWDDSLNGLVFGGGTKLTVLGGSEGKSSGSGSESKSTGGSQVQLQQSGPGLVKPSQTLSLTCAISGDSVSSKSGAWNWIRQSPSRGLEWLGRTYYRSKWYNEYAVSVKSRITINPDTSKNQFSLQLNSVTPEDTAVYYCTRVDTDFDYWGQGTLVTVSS
Experimental: (§1) Biacore system (Cytiva) was used to measure bio-molecular interactions by surface plasmon resonance (SPR). Anti-Mouse Fc antibody directly immobilized on a CMS sensor chip. Library Antibodies (Mouse IgG2a) diluted to 1 ug/ml to reach approximately 20-60 RU. Antigens (scFv Fc fusions) are associated at 100 nM to 0.16 nM, 1:5 dilutions for 3 minutes. Dissociation for 30 mins. The results of the assay (Table 1 below) show the nanomolar dissociation constant of A003B192 and A003B274 with CD9B503 (CD9B441-HL-scFv-Fc bivalent fusion protein) and CD9B574 (CD9B441-LH-scFv-Fc monovalent fusion protein).

[4] = biological target: T3, CD9B503 (CD9B441-HL-scFv-Fc bivalent fusion protein) (Biotinylated in the panning and MSD screening assays of Example 1.); assay: as above
T3 construct: also called CD9B441-derived scFv-fusion protein
T3 sequence (scFv, as listed by the source limits assumed): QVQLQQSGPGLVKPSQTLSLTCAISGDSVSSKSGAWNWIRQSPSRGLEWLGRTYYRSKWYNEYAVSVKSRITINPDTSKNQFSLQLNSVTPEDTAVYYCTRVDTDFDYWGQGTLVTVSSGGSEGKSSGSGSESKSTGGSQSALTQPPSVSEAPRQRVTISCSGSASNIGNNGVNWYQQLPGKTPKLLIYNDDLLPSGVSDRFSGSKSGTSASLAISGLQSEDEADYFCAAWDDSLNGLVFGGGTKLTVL
Experimental: as §1

[5] = biological target: T3, CD9B503 (CD9B441-HL-scFv-Fc bivalent …); assay: MSD electrochemiluminescent immunoassay, crude Fab lysate on biotinylated scFv-Fc on streptavidin plate
Experimental: The monoclonal Fab lysates prepared from the enriched Fab libraries were screened in Meso Scale Discovery (MSD) based electro-chemiluminescent immunoassays (ECLIA) for binding to CD9B503 but not to a similar negative control scFv fusion protein CD9B504 (CD9B449-HL-scFv Fc). Biotinylated ScFv-Fc fusion antigens, target antigen CD9B503 or negative control scFv fusion protein counter screening reagent CD9B504, were diluted to a concentration of 2.5 nM in SuperBlock T20 (TBS) Blocking Buffer (Thermo cat #37536) and 50 ul/well was added to their respective MSD 384-well streptavidin plates (Meso Scale Discovery cat #L21SA-5) and incubated on a shaker for 30 min at RT. The plates were washed 1×80 ul/well 1×PBST and crude Fab lysates from E. coli expressions in 96-well plates were stamped into the 384-well assay plates in duplicate and incubated on a shaker for 1 hour at RT. The assay plates were washed 1×80 ul/well 1×PBST and 6 nM of SULFO-TAG Anti-human/NHP Kappa Antibody (Meso Scale cat #D20TF-6) added at 10 ul/well, and the plates incubated on a shaker for 1 hour at RT. The plates were washed 2×80 ul/well 1×PBST and 35 ul/well of 1×MSD Read Buffer T (Meso Scale cat #R92TC-1) added to each well and the plates analyzed on an MSD Sector 5600 plate reader. […]

Row | Binder | EC50 (read off the curve) [2] | Kd [4] | signal ratio of CD9B503 over CD9B504 [5] | further results
1 | recombinant phycoerythrin-conjugated A003B192 (antibody, mouse IgG2a, kappa, V domains shown, antibody conjugated to recombinant phycoerythrin (rPE), 1:1 PE:antibody; site of attachment not stated, also called A003B192 conjugated to rPE; PE-antibody conjugate) VH: QVQLVQSGAEVKKPGSSVKVSCKASGGTFKSDAISWVRQAPGQGLEWMGGIRPNEGNAEYAQKFQGRVTITADESTSTAYMELSSLRSEDTAVYYCARGRYGAYRLVYYAFDYWGQGTLVTVSS VL: not shown | – | – | – | binding result [1]: binds
2 | A003B192 (antibody, mouse IgG2a, kappa, V domains shown, also called anti-idiotypic antibody A003B192; HC construct PBD000109791 / LC construct PBD00098715) VH: QVQLVQSGAEVKKPGSSVKVSCKASGGTFKSDAISWVRQAPGQGLEWMGGIRPNEGNAEYAQKFQGRVTITADESTSTAYMELSSLRSEDTAVYYCARGRYGAYRLVYYAFDYWGQGTLVTVSS VL: not shown | ~0.02 µg/mL | 40 pM and 37 pM | – | Kd [3]: 1600 pM and 1610 pM
3 | A003B274 (antibody, mouse IgG2a, kappa, V domains shown, also called anti-idiotypic antibody A003B274; HC construct PBD000109922 / LC construct PBD00098715) VH: QVQLVQSGAEVKKPGSSVKVSCKASGGTFKSYAISWVRQAPGQGLEWMGYISPESGTANYAQKFQGRVTITADESTSTAYMELSSLRSEDTAVYYCARERYYYGYRRYRYYGMDVWGQGTLVTVSS VL: not shown | ~0.04 µg/mL | 230 pM and 226 pM | – | –

Now from value to binder, other results behind:

Row | EC50 (read off the curve) [2] | Kd [4] | signal ratio of CD9B503 over CD9B504 [5] | Binder | further results
4 | – | – | 10 | CL002588468 (monoclonal Fab, parent clone for the VH and VL in A003B192) (Fab, V domains shown, Soluble human Fab in crude E. coli lysate) VH: QVQLVQSGAEVKKPGSSVKVSCKASGGTFKSDAISWVRQAPGQGLEWMGGIRPNEGNAEYAQKFQGRVTITADESTSTAYMELSSLRSEDTAVYYCARGRYGAYRLVYYAFDYWGQGTLVTVSS VL: not shown | –
5 | – | – | 10 | CL002588437 (monoclonal Fab, parent clone for the VH and VL in A003B274) (Fab, V domains shown, Soluble human Fab in crude E. coli lysate) VH: QVQLVQSGAEVKKPGSSVKVSCKASGGTFKSYAISWVRQAPGQGLEWMGYISPESGTANYAQKFQGRVTITADESTSTAYMELSSLRSEDTAVYYCARERYYYGYRRYRYYGMDVWGQGTLVTVSS VL: not shown | –
